The experiment deals with PorKN heterodimer unit (P. gingivalis). Description: cryo-EM structure.

Values joined by “and” are separate entries in the source; they are usually repeats but may differ in a detail not shown here. Identical values can stand only once.

Regarding PorKN heterodimer unit (complex), the stoichiometry N is 31 to 35 (2×) and 33.

Usually stoichiometry N stands for a count of units in the complex or per binding partner.

Values taken from paper PMC12635249.
